In patent publication US20240277865A1 (ACADEMIA SINICA, published 2024):
Substitutions are numbered along the chain they refer to.

B1: CHS5 IgG (antibody, V domains shown)
VH: EVQLVESGGGLVQPGGSLRLSCAASGFTITDRTIHWVRQAPGKGLEWVASIFPTKGVTTYADSVKGRFTISADTSKNTAYLQMNSLRAEDTAVYYCARGRYWMDYWGQGTLVTVSS
VL: DIQMTQSPSSLSASVGDRVTITCRASQDVKEGVAWYQQKPGKAPKLLIDQSHRLYSGVPSRFSGSGSGTDFTLTISSLQPEDFATYYCQQYYAWPSTFGQGTKVEIKR
notes: also called IgG1-CHS5
B2: CHS8 IgG (antibody, V domains shown)
VH: B1 VH with T30S, D31K, R32A, T33S, F52W, V57F, M103L
VL: B1 VL with Q50E, S51R, H52E, Y92N, A93T, S96A
B3: ALA12-vcMMAE (antibody, V domains shown)
VH: B1 VH with T30G, D31N, R32W, S50L, F52W, T54E, K55S, V57A, T59L
VL: B1 VL with K30R, E31D, S51M, H52V, Y92F, A93N, S96V
notes: also called ALA12 IgG1-vcMMAE
B4: ALA12 IgG (antibody, V domains shown)
VH: B1 VH with T30G, D31N, R32W, S50L, F52W, T54E, K55S, V57A, T59L
VL: B1 VL with K30R, E31D, S51M, H52V, Y92F, A93N, S96V
B5: CHS5-vcMMAE (antibody, V domains shown)
VH: B1 VH
VL: B1 VL
notes: also called CHS5 IgG1-vcMMAE
B6: CHS7 IgG (antibody, V domains shown)
VH: B1 VH with T30D, D31K, R32E, T33A, F52Y, T54H, K55S, V57F, T59L
VL: B1 VL with K30E, E31D, D49G, Q50I, S51K, H52D, R53L, A93R
B7: CHS7-vcMMAE (antibody, V domains shown)
VH: B1 VH with T30D, D31K, R32E, T33A, F52Y, T54H, K55S, V57F, T59L
VL: B1 VL with K30E, E31D, D49G, Q50I, S51K, H52D, R53L, A93R
notes: also called CHS7 IgG1-vcMMAE
B8: CHS8-vcMMAE (antibody, V domains shown)
VH: B1 VH with T30S, D31K, R32A, T33S, F52W, V57F, M103L
VL: B1 VL with Q50E, S51R, H52E, Y92N, A93T, S96A
notes: also called CHS8 IgG1-vcMMAE

Each binder was assayed against MSLN expressed on the cell surface of human cancer cell lines N87 and H226 (human, UniProt Q13421 37-598) (assay: cell-based or functional assay).
With B1 the “IgG1-AL1-PE38KDEL IC50 (nM), cell viability of N87 cells” value (shortened to “IgG1-AL1-PE38KDEL IC50 (nM)”) was 0.06 nM. With B2 the “IgG1-AL1-PE38KDEL IC50 (nM)” value was 0.01 nM. For B3, the “IgG1-vcMMAE IC50 (nM), cell viability of N87 cells” value (“IgG1-vcMMAE IC50 (nM)” for short) was 39.9 nM. In the case of B4, the “IgG1-AL1-PE38KDEL IC50 (nM)” value is reported as 0.1 nM. With B5 the “IgG1-vcMMAE IC50 (nM)” value was 15 nM. With B6 the “IgG1-AL1-PE38KDEL IC50 (nM)” value was 0.06 nM. B7 was tested, and the “IgG1-vcMMAE IC50 (nM)” value was 25.9 nM. B8 was tested, and the “IgG1-vcMMAE IC50 (nM)” value was 24.6 nM.

The binders below were run against T1, mesothelin (MSLN) (UniProt Q13421 296-580) (assay: ELISA, MSLN coated on plate, IgG1 detected with anti-human IgG HRP).
T1 construct: also called immobilized MSLN
T1 sequence (Q13421 other isoform, or with tags, fused parts or gaps limits assumed): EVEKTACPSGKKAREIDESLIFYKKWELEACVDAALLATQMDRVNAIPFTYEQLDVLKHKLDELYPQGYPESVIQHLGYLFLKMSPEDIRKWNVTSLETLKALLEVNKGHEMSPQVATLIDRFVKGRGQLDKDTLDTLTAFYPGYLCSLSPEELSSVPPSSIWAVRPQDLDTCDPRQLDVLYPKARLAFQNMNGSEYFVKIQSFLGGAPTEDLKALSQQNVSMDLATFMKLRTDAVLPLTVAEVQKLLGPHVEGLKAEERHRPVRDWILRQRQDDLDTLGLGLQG
B1 gave an EC50 of 4.67 ng/mL. Binder B2 has an EC50 of 5.05 ng/mL. For B4, the EC50 was 8.37 ng/mL. In the case of B6, the EC50 is reported as 10.3 ng/mL.

Each binder was assayed against T1, mesothelin (MSLN) (assay: ELISA, MSLN coated on plate, IgG1-vcMMAE detected with anti-human IgG HRP).
In the case of B3, the EC50 is reported as 10.5 ng/mL. B5 was tested, and the EC50 was 9.56 ng/mL. For B7, the EC50 was 16.3 ng/mL. B8 was tested, and the EC50 was 9.26 ng/mL.
